This assay deals with eIF4E (UniProt P63074). As to the kind of experiment: anti-eIF4E IP, anti-histidine blot. To be noted: reference: wild type Hsp27; sites S15,S78,S82.

In the case of “Hsp27 (from UniProt P04792) 3A (S15A/S78A/S82A)”, the “binding against the reference” value is “weaker”.

These data come from PMC5652782.
